Measurements from article PMC5581337.

Molecular target: HA-NRX2αS1(+) S2(+) S3(+) S4(−) (extracellularly HA-tagged neurexin2α without the insert at splice site 4) (mouse) (UniProt E9Q7X7)
Assay: cell surface binding assay; Scatchard plot analysis of IgSF21-Fc bound to COS-7 cells expressing HA-NRX2αS4(-), n = 30 cells

Kd: 21 nM
Substance: IgSF21-Fc (ectodomain of rat IgSF21 fused to the human immunoglobulin Fc region) (from UniProt M0RAS4 25-448) (Fc fusion)
